From publication doi:10.1101/2023.03.19.532587 (bioRxiv, 2023)

Target: the molecule itself
Assay: SEC-MALS

B1: nCPEB4-NTD (N-terminal domain of neuronal CPEB4, with microexon 4) (domain or fragment, human)
chain: MGDYGFGVLVQSNTGNKSAFPVRFHPHLQPPHHHQNATPSPAAFINNNTAANGSSAGSAWLFPAPATHNIQDEILGSEKAKSQQQEQQDPLEKQQLSPSPGQEAGILPETEKAKSEENQGDNSSENGNGKEKIRIESPVLTGFDYQEATGLGTSTQPLTSSASSLTGFSNWSAAIAPSSSTIINEDASFFHQGGVPAASANNGALLFQNFPHHVSPGFGGSFSPQIGPLSQHHPHHPHFQHHHSQHQQQRRSPASPHPPPFTHRNAAFNQLPHLANNLNKPPSPWSSYQSPSPTPSSSWSPGGGGYGGWGGSQGRDHRRGLNGGITPLNSISPLKKNFASNHIQLQKYARPSSAFAPKSWMEDSLNRADNIFPFPDRPRTFDMHSLESSLIDIMRAENDTIKARTYGRRRGQSSLFPMEDGFLDDGRGDQPLHSGLGSPHCFSHQNGE
For B1, the “stoichiometry N” value was roughly 350 molecules.
